According to PMC5854381, “Dynamics of Scabin toxin. A proposal for the binding mode of the DNA substrate”:

B1: Cy3-dsDNA 21 bp (dsDNA)
DNA 1: GGAAGAGAGAGAGAAAGAGAG
DNA 2: CTCTCTTTCTCTCTCTCTTCC

Columns and labels:
[1] = system: NC(=O)c1ccc[n+]([C@@H]2O[C@H](COP(=O)(O)OP(=O)(O)OC[C@H]3O[C@@H](n4cnc5c4ncn4ccnc54)[C@H](O)[C@@H]3O)[C@@H](O)[C@H]2O)c1; experiment: purified protein; details: pH 7.9
[2] = target: Scabin WT (Streptomyces scabies, UniProt C9Z6T8 26-200); experiment: fluorescence anisotropy; no NAD+ mentioned; text labels this WT value N110A [sic]; Anisotropy: 5 uM Cy3-dsDNA, 25 mM Tris-HCl pH 8.2, 100 mM NaCl, 22 C; details: protein: recombinant; label: 5' Cy3 on strand 1; blunt

| Molecule | Km [1] | Kd [2] |
| --- | --- | --- |
| (Streptomyces scabiei 87.22) | 68 ± 3 µM | – |
| B1 | – | 51 ± 4 µM |
